These results are taken from paper PMC10462622 (Nature Communications, 2023).

Assay [1] has as its target T1, near-full-length human CUL5 (residues 12-780) (human, UniProt Q93034 12-780).
T1 construct: not shown: GB1, N-terminal, cleaved
T1 sequence: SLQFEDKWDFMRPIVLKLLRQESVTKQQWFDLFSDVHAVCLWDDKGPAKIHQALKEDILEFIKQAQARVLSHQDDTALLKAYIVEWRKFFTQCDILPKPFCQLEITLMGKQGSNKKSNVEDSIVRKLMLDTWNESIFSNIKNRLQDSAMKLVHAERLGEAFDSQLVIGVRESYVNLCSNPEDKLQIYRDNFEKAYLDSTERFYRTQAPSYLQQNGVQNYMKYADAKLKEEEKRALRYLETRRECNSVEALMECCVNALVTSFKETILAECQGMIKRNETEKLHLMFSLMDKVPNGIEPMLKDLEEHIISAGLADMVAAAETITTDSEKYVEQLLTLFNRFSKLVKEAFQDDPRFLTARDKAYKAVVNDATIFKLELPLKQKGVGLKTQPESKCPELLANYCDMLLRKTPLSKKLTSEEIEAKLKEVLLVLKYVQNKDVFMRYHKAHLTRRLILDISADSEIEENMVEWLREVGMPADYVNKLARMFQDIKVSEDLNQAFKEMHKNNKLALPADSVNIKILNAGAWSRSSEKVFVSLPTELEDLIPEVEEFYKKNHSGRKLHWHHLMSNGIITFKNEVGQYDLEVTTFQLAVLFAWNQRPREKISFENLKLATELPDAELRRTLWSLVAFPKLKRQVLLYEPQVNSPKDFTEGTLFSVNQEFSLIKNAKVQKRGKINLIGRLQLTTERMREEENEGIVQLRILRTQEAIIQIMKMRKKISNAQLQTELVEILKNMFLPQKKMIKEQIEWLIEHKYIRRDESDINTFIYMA
The assay is described as follows: cryo-EM structure. The settings on record: both partners purified.

Assay [2] has as its target T2, HIV-1 NL4-3 Vif N48H (residues 1-176) (HIV-1 (pNL4-3), UniProt P12504 1-176, N48H).
T2 construct: also called N48H Vif; N48H NL4-3 Vif
The assay is described as follows: cryo-EM structure. The note with it: both partners purified.

B1: human RBX2 (residues 1-113) (natural protein)
chain: MADVEDGEETCALASHSGSSGSKSGGDKMFSLKKWNAVAMWSWDVECDTCAICRVQVMDACLRCQAENKQEDCVVVWGECNHSFHNCCMSLWVKQNNRCPLCQQDWVVQRIGK
notes: also called RING-box protein 2; source: E. coli BL21(DE3), co-expressed with GB1-CUL5 (pETDuet-1), purified as CUL5/RBX2 complex (Ni-NTA, SEC)
Consider B1, for which, in assay [1], the binding result is “binds”.

B2: human CBF-β (residues 1-156) (domain or fragment)
chain: MPRVVPDQRSKFENEEFFRKLSRECEIKYTGFRDRPHEERQARFQNACRDGRSEIAFVATGTNLSLQFFPASWQGEQRQTPSREYVDLEREAGKVYLKAPMILNGVCVIWKGWIDLQRLDGMGCLEFDEERAQQEDALAQQAFEEARRRTREFEDR
On to B2, for which the binding result in assay [2] is recorded as “binds”.
